B1: G27 (ssDNA)
DNA: CGTACGGAATTCGCTAGCGGGTGGAGTACGTGGGGGTCATCCTGTGTGGGATCCGAGCTCCACGTG
B2: G26 (ssDNA)
DNA: CGTACGGAATTCGCTAGCATCGGGTGCAGAGTCGGAGCTAACGGCAGCGGATCCGAGCTCCACGTG
B3: G37 (ssDNA)
DNA: CGTACGGAATTCGCTAGCGGGCGATGTGCGGAATGTGGGATTGCGGGTGGATCCGAGCTCCACGTG
B4: G21 (ssDNA)
DNA: CGTACGGAATTCGCTAGCGGGTTCGGGACGGATGAACGTGATAGCTGAGGATCCGAGCTCCACGTG
B5: G56 (ssDNA)
DNA: CGTACGGAATTCGCTAGCCCGTGGGGTAGCGGGGTCGTGTGATATGTGGATCCGAGCTCCACGTG
B6: G54 (ssDNA)
DNA: CGTACGGAATTCGCTAGCGTGGCGGGGCGCGGGTGCCGGAGTTGATGTGGATCCGAGCTCCACGTG
B7: G32 (ssDNA)
DNA: CGTACGGAATTCGCTAGCGTGGACTGGCGGAAATCTTGGTATGCCCATGGATCCGAGCTCCACGTG
B8: G9 (ssDNA)
DNA: CGTACGGAATTCGCTAGCGGGGATGGGCCGCTCTGCAGAATGTTCTGTGGATCCGAGCTCCACGTG
B9: G39 (ssDNA)
DNA: CGTACGGAATTCGCTAGCGGTTGCCGTGCGGCGTGCGAGTTGGGCCTTGGATCCGAGCTCCACGTG
B10: G4 (ssDNA)
DNA: CGTACGGAATTCGCTAGCGTGATGTGGGGGTACGCTCGTGGCAGGCTTGGATCCGAGCTCCACGTG
B11: G15 (ssDNA)
DNA: CGTACGGAATTCGCTAGCAGCCGGCGGGTGCTCAATGTTGGGGGTTGGGATCCGAGCTCCACGTG
B12: G12 (ssDNA)
DNA: CGTACGGAATTCGCTAGCGGGTGCCGTGGCACGAGGCCGTGGTCCAGGGGATCCGAGCTCCACGTG
B13: G35 (ssDNA)
DNA: CGTACGGAATTCGCTAGCGGTGACGGACGTGGGGTGCACGAAGGGAGGGGATCCGAGCTCCACGTG
B14: G40 (ssDNA)
DNA: CGTACGGAATTCGCTAGCCGGGGTGGGAACCAGTCTTGCGCGGGTGACGGATCCGAGCTCCACGTG
B15: G55 (ssDNA)
DNA: CGTACGGAATTCGCTAGCGGACTGGAGTCTAGACCGGGTAGCTGTGGTGGATCCGAGCTCCACGTG

Target: T1, Nampt (nicotinamide phosphoribosyltransferase) (UniProt P43490 P43490:1-491)
Assay: SPR; 200 nM Nampt
Conditions: tags: AdipoGen AG-40A-0031; chain copies: 2
Description: An experiment showing that 15 kinds of aptamers strongly bound to Nampt were not bound to other blood proteins but specifically bound to Nampt only was carried out by immobilizing aptamers onto a gold chip with a surface […] resonance device (SPR).
Firstly, a carboxyl group (—COOH) was formed on a surface of a gold chip with 50 mM of 3,3′-dithiodipropionic acid, and a self-assembly monolayer was formed with EDC/NHS. Then, streptavidin was immobilized thereon, and each aptamer bound to biotin was immobilized. Herein, 200 nM Nampt and the controls, i.e., RBP4, adiponectin, resistin, vaspin, and HAS, were reacted for 30 minutes in respective buffer solutions (100 mM NaCl, 2 mM MgCl₂, 5 mM KCl, 1 mM CaCl₂, and 20 mM Tris-Cl buffer solution containing 0.02% Tween 20, pH 7.6), and non-bound proteins were washed off with the same buffer solutions.

T1 sequence (P43490 whole entry, one chain of several): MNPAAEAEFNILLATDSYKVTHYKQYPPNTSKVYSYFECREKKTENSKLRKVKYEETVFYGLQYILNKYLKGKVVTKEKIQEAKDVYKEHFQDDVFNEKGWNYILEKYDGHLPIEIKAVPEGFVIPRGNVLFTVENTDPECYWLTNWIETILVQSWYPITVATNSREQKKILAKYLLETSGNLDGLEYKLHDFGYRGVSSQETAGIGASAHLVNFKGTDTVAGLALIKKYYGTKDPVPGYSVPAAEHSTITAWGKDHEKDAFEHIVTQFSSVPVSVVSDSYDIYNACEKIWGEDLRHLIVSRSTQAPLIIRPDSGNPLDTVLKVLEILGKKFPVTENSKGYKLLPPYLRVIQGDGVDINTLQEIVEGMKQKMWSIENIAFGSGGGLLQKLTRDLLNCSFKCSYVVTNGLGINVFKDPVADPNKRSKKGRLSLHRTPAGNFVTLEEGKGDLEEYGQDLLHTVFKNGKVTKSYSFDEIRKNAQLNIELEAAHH

Binder | binding result
B1 | binds
B2 | binds
B3 | binds
B4 | binds
B5 | binds
B6 | binds
B7 | binds
B8 | binds
B9 | binds
B10 | binds
B11 | binds
B12 | binds

Target: T1, Nampt (nicotinamide …)
Assay: SPR; aptamer immobilized; same buffer pH 7.6
Conditions: tags: AdipoGen AG-40A-0031; chain copies: 2
Description: (§1) Aptamers G35, G40, and G55 had the highest specificity and binding force among the 15 kinds of aptamers specifically bound to Nampt and produced in Example 1. Binding of these aptamers with respect to Nampt was analyzed. The aptamers were immobilized onto a gold chip in the same manner as described above, and Nampt at various concentrations of 20 nM to 400 nM was reacted for 30 minutes in buffer solutions (100 mM NaCl, 2 mM MgCl₂, 5 mM KCl, 1 mM CaCl₂, and 20 mM Tris-Cl buffer solution containing 0.02% Tween 20, pH 7.6). In order to obtain a dissociation constant, each reaction level was plotted by a nonlinear regression method and a single site saturation ligand binding method with Graphpad Prism 5.0. In this case, the equation Y=Bₘₐₓ*X̂h/(Kd̂h+X̂h) was used (y represents a saturation degree, Bₘₐₓ represents a maximal binding site, Kd represents a dissociation constant, X represents non-bound Nampt, and h represents a hill slope constant).

Binder | Kd [nM]
B13 | 117
B14 | 114

Target: T1, Nampt (nicotinamide …)
Assay: SPR; aptamer immobilized; 100 mM NaCl, 2 mM MgCl2, 5 mM KCl, 1 mM CaCl2, 20 mM Tris, 0.02% Tween 20, pH 7.6
Conditions: tags: AdipoGen AG-40A-0031; chain copies: 2
Description: as §1

Binder | Kd [nM]
B15 | 71.7

Source: patent publication US20140363808, “[…] […] METHOD BASED ON […] WITHOUT TARGET IMMOBILIZATION AND THE […] OBTAINED FROM THE METHOD” (KOREA UNIVERSITY RESEARCH AND BUSINESS FOUNDATION, published 2014)
